The record followed here is the Human Domainome abundance scans (Beltran et al. 2025).

± gives the uncertainty stated by the source.

First the molecules themselves.
B1: Metastasis-associated protein MTA3, residues 265 to 317; numbered along this chain, Q9BTC8 (parent)
chain: RDEMEEWSASEASLFEEALEKYGKDFNDIRQDFLPWKSLTSIIEYYYMWKTTD

In the data set the parent is B1. Briefly: abundance fitness (aPCA) (normalised: wild type 0, dead -1); higher = more abundant; growth selection in yeast, the domain comes from the species named. The note with it: Homo sapiens.
Take RDEMEEWSASEASLFEEALEKYGKDFNMIRQDFLPWKSLTSIIEYYYMWKTTD [D28M]: the abundance fitness was found to be 0.331 ± 0.2.

With RDEMEEWSASEASLFEEALEKYGKDFNGIRQDFLPWKSLTSIIEYYYMWKTTD [D28G], the abundance fitness was 0.079 ± 0.12. For RDEMEEWSASEASLFEEALEKYGKDFNSIRQDFLPWKSLTSIIEYYYMWKTTD [D28S], the abundance fitness worked out at 0.644 ± 0.13. Turning to RDEMEEWSASEASLFEEALEKYGKDFNWIRQDFLPWKSLTSIIEYYYMWKTTD [D28W], the abundance fitness was 0.035 ± 0.11. On to RDEMEEWSASEASLFEEALEKYGKDFNQIRQDFLPWKSLTSIIEYYYMWKTTD [D28Q], for which the abundance fitness was 1.19 ± 0.16. As for RDEMEEWSASEASLFEEALEKYGKDFNPIRQDFLPWKSLTSIIEYYYMWKTTD [D28P], the figure is -0.522 ± 0.48; as for RDEMEEWSASEASLFEEALEKYGKDFNAIRQDFLPWKSLTSIIEYYYMWKTTD [D28A], 0.861 ± 0.079. RDEMEEWSASEASLFEEALEKYGKDFNRIRQDFLPWKSLTSIIEYYYMWKTTD [D28R]: the abundance fitness turned out to be 0.549 ± 0.14. As for RDEMEEWSASEASLFEEALEKYGKDFNLIRQDFLPWKSLTSIIEYYYMWKTTD [D28L], the figure is 0.978 ± 0.099. For RDEMEEWSASEASLFEEALEKYGKDFNFIRQDFLPWKSLTSIIEYYYMWKTTD [D28F], the abundance fitness was -0.015 ± 0.42. Turning to RDEMEEWSASEASLFEEALEKYGKDFNCIRQDFLPWKSLTSIIEYYYMWKTTD [D28C], the abundance fitness was 0.882 ± 0.17. Regarding RDEMEEWSASEASLFEEALEKYGKDFNIIRQDFLPWKSLTSIIEYYYMWKTTD [D28I], the abundance fitness is 0.324 ± 0.16. Regarding RDEMEEWSASEASLFEEALEKYGKDFNTIRQDFLPWKSLTSIIEYYYMWKTTD [D28T], the abundance fitness amounted to 0.59 ± 0.16. On to RDEMEEWSASEASLFEEALEKYGKDFNEIRQDFLPWKSLTSIIEYYYMWKTTD [D28E], for which the abundance fitness is 0.305 ± 0.11. With RDEMEEWSASEASLFEEALEKYGKDFNDIRQDFLPWCSLTSIIEYYYMWKTTD [K37C], the abundance fitness is -0.763 ± 0.088.

Regarding RDEMEEWSASEASLFEEALEKYGKTFNDIRQDFLPWKSLTSIIEYYYMWKTTD [D25T], the abundance fitness is -0.838 ± 0.17. Take RDEMEEWSASEASLFEEALEKYGKHFNDIRQDFLPWKSLTSIIEYYYMWKTTD [D25H]: the abundance fitness is -0.125 ± 0.14. With RDEMEEWSASEASLFEEALEKYGKKFNDIRQDFLPWKSLTSIIEYYYMWKTTD [D25K], the abundance fitness was determined as 0.375 ± 0.081. The figure for RDEMEEWSASEASLFEEALEKYGKSFNDIRQDFLPWKSLTSIIEYYYMWKTTD [D25S] is 0.366 ± 0.086; for RDEMEEWSASEASLFEEALEKYGKNFNDIRQDFLPWKSLTSIIEYYYMWKTTD [D25N] it is 0.356 ± 0.16. As for RDEMEEWSASEASLFEEALEKYGKVFNDIRQDFLPWKSLTSIIEYYYMWKTTD [D25V], the abundance fitness was -0.818 ± 0.2. As for RDEMEEWSASEASLFEEALEKYGKWFNDIRQDFLPWKSLTSIIEYYYMWKTTD [D25W], the figure is -0.776 ± 0.17. The figure for RDEMEEWSASEASLFEEALEKYGKQFNDIRQDFLPWKSLTSIIEYYYMWKTTD [D25Q] is 0.088 ± 0.095. On to RDEMEEWSASEASLFEEALEKYGKMFNDIRQDFLPWKSLTSIIEYYYMWKTTD [D25M], for which the abundance fitness is -0.25 ± 0.16. Regarding RDEMEEWSASEASLFEEALEKYGKYFNDIRQDFLPWKSLTSIIEYYYMWKTTD [D25Y], the abundance fitness was -0.392 ± 0.2. In the case of RDEMEEWSASEASLFEEALEKYGKAFNDIRQDFLPWKSLTSIIEYYYMWKTTD [D25A], the abundance fitness was determined as 0.556 ± 0.086.

As to RDEMEEWSASEASLFEEALEKYGKIFNDIRQDFLPWKSLTSIIEYYYMWKTTD [D25I], the abundance fitness was -0.162 ± 0.18.

Turning to RDEMEEWSASEASLFEEALEKYGKLFNDIRQDFLPWKSLTSIIEYYYMWKTTD [D25L], the abundance fitness is -0.741 ± 0.13. For RDEMEEWSASEASLFEEALEKYGKGFNDIRQDFLPWKSLTSIIEYYYMWKTTD [D25G], the abundance fitness was -0.47 ± 0.16. Turning to RDEMEEWSASEASLFEEALEKYGKFFNDIRQDFLPWKSLTSIIEYYYMWKTTD [D25F], the abundance fitness was -0.594 ± 0.28.

As to RDEMEEWSASEASLFEEALEKYGKCFNDIRQDFLPWKSLTSIIEYYYMWKTTD [D25C], the abundance fitness was -0.026 ± 0.11. The figure for RDEMEEWSASEASLFEEALEKYGKEFNDIRQDFLPWKSLTSIIEYYYMWKTTD [D25E] is -0.087 ± 0.19.

For the variant RDEMEEWSASEASLFEEALEKYGIDFNDIRQDFLPWKSLTSIIEYYYMWKTTD [K24I], the abundance fitness is -0.536 ± 0.17. As to RDEMEEWSASEASLFEEALEKYGADFNDIRQDFLPWKSLTSIIEYYYMWKTTD [K24A], the abundance fitness worked out at 0.104 ± 0.075. RDEMEEWSASEASLFEEALEKYGHDFNDIRQDFLPWKSLTSIIEYYYMWKTTD [K24H]: the abundance fitness was -0.362 ± 0.08.

RDEMEEWSASEASLFEEALEKYGVDFNDIRQDFLPWKSLTSIIEYYYMWKTTD [K24V]: the abundance fitness is -0.217 ± 0.095.

RDEMEEWSASEASLFEEALEKYGEDFNDIRQDFLPWKSLTSIIEYYYMWKTTD [K24E]: the abundance fitness is -0.133 ± 0.17. RDEMEEWSASEASLFEEALEKYGRDFNDIRQDFLPWKSLTSIIEYYYMWKTTD [K24R]: the abundance fitness was -0.151 ± 0.094. As for RDEMEEWSASEASLFEEALEKYGYDFNDIRQDFLPWKSLTSIIEYYYMWKTTD [K24Y], the figure is -0.331 ± 0.18. As for RDEMEEWSASEASLFEEALEKYGCDFNDIRQDFLPWKSLTSIIEYYYMWKTTD [K24C], the abundance fitness stood at 0.163 ± 0.071. Consider RDEMEEWSASEASLFEEALEKYGSDFNDIRQDFLPWKSLTSIIEYYYMWKTTD [K24S], for which the abundance fitness is -0.108 ± 0.076. Regarding RDEMEEWSASEASLFEEALEKYGWDFNDIRQDFLPWKSLTSIIEYYYMWKTTD [K24W], the abundance fitness is -0.935 ± 0.38. As for RDEMEEWSASEASLFEEALEKYGLDFNDIRQDFLPWKSLTSIIEYYYMWKTTD [K24L], the figure is -0.006 ± 0.076.

For RDEMEEWSASEASLFEEALEKYGFDFNDIRQDFLPWKSLTSIIEYYYMWKTTD [K24F], the abundance fitness was -0.992 ± 0.19. As for RDEMEEWSASEASLFEEALEKYGNDFNDIRQDFLPWKSLTSIIEYYYMWKTTD [K24N], the abundance fitness worked out at 0.333 ± 0.17.

RDEMEEWSASEASLFEEALEKYGQDFNDIRQDFLPWKSLTSIIEYYYMWKTTD [K24Q]: the abundance fitness was -0.062 ± 0.074. The figure for RDEMEEWSASEASLFEEALEKYGPDFNDIRQDFLPWKSLTSIIEYYYMWKTTD [K24P] is 0.307 ± 0.061; for RDEMEEWSASEASLFEEALEKYGDDFNDIRQDFLPWKSLTSIIEYYYMWKTTD [K24D] it is -0.165 ± 0.096; for RDEMEEWSASEASLFEEALEKYGGDFNDIRQDFLPWKSLTSIIEYYYMWKTTD [K24G] it is -0.208 ± 0.13.

RDEMEEWSASEASLFEEALEKYGKDSNDIRQDFLPWKSLTSIIEYYYMWKTTD [F26S]: the abundance fitness is -0.959 ± 0.22.
